Experiments:
[1] = molecular target: T1, cynomolgus monkey BDCA2 (full-length, cell surface, E73 SNP form) (cynomolgus monkey, UniProt Q8WTT0 1-213 (human entry)); assay: flow cytometry, whole blood pDCs of cynomolgus monkey donor 3, anti-human IgG PE secondary
T1 construct: also called cyno BDCA2; surface cynomolgus monkey BDCA2
T1 chain: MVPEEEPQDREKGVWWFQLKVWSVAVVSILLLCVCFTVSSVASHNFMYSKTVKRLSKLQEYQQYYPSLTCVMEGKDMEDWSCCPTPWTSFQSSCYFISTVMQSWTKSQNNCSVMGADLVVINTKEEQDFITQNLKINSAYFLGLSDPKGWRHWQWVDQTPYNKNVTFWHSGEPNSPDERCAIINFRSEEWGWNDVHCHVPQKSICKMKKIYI
Procedure: (§1) The MFI of PE was calculated in FlowJo software, and the percent of maximal binding, using the 40 μg/mL point as 100%, was computed. Each line represents one individual cynomolgus monkey, for a total of twelve cynomolgus monkeys, and graphed using GraphPad Prism software (four-parameter nonlinear regression curve fit of log-transformed data). Staining was repeated once a week for three weeks total.
(§2) The maximal values were taken from the values at the plateau in each assay (FIGS. 24 and 25).
(§3) MFI of PE was calculated with FlowJo software, and EC50 curves were generated in GraphPad Prism software.

[2] = molecular target: T1, cynomolgus monkey BDCA2 (full-length, …); assay: cell-based or functional assay
[3] = molecular target: T1, cynomolgus monkey BDCA2 (full-length, …); assay: flow cytometry, whole blood pDCs of cynomolgus monkey donor 12, anti-human IgG PE secondary
Procedure: as §1, §2, §3

[4] = molecular target: T2, human BDCA2 (full-length, cell surface) (human, UniProt Q8WTT0 1-213); assay: FACS
T2 construct: also called huBDCA2; surface human BDCA2
T2 sequence: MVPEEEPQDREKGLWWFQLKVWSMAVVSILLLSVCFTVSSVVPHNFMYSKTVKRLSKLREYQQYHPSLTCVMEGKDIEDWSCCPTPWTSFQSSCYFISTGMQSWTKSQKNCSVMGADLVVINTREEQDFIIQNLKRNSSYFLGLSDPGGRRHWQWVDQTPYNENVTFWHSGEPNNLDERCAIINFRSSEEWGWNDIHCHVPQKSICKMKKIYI

[5] = molecular target: T1, cynomolgus monkey BDCA2 (full-length, …); assay: FACS
[6] = molecular target: T1, cynomolgus monkey BDCA2 (full-length, …); assay: flow cytometry, whole blood pDCs of cynomolgus monkey donor 6, anti-human IgG PE secondary
Procedure: as §1, §2, §3

[7] = molecular target: T3, rat Clec4b2 (full-length, cell surface) (rat); assay: dilution titration direct FACS on transiently transfected 293E cells
T3 construct: 293E cells co-transfected with rat FcεRIγ; Genbank NM_001005896; also called surface rat Clec4b2; closest rat homolog of human BDCA2
T3 chain: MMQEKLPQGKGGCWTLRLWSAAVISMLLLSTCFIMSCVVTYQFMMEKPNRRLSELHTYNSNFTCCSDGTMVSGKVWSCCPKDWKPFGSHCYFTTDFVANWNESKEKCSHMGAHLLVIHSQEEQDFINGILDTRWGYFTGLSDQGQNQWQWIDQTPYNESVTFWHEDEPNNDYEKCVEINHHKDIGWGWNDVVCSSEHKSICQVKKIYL

[8] = molecular target: T1, cynomolgus monkey BDCA2 (full-length, …); assay: flow cytometry, whole blood pDCs of cynomolgus monkey donor 5, anti-human IgG PE secondary
Procedure: as §2, §3

[9] = molecular target: T4, monomeric huBDCA2 ectodomain (human, UniProt Q8WTT0 45-213); assay: Octet, mAb from conditioned medium on anti-human Fc tips, monomeric huBDCA2 in solution
T4 construct: Prepared by proteolytic cleavage of the purified muIgG2a Fc-huBDCA2 fusion protein (pEAG2423); also called human BDCA2 ectodomain; human BDCA2 ECD
T4 sequence: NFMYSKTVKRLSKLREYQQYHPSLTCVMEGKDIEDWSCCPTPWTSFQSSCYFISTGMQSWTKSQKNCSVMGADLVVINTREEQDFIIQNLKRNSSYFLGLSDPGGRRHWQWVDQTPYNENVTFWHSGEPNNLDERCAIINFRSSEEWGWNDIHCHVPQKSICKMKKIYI
Procedure: Backmutation to the unpaired cysteine, i.e., S95C, was constructed by site-directed mutagenesis producing plasmid pYL749. Variants S95T, S95A, and S95V were constructed by site-directed mutagenesis producing plasmids pYL750, pYL751, and pYL752, respectively. The full-length light chain cDNA sequences in the resultant plasmids were confirmed by DNA sequencing. […] Conditioned medium was harvested at 2 days post-transfection. […] Conditioned medium containing the C95 variant mAbs was assayed by Octet for binding to human BDCA2 ectodomain. Antibodies from conditioned medium from transiently transfected cells were bound to anti-human Fc tips, then monomeric huBDCA2 was flowed over the Octet tips, to examine binding and dissociation.

[10] = molecular target: T1, cynomolgus monkey BDCA2 (full-length, …); assay: flow cytometry, whole blood pDCs, average of the twelve cynomolgus monkey donors
Procedure: as §2, §3

[11] = molecular target: T1, cynomolgus monkey BDCA2 (full-length, …); assay: flow cytometry, whole blood pDCs of cynomolgus monkey donor 9, anti-human IgG PE secondary
Procedure: as §1, §2, §3

[12] = molecular target: T1, cynomolgus monkey BDCA2 (full-length, …); assay: flow cytometry, whole blood pDCs of cynomolgus monkey donor 10, anti-human IgG PE secondary
Procedure: as §2, §3

[13] = molecular target: T1, cynomolgus monkey BDCA2 (full-length, …); assay: flow cytometry, whole blood pDCs of cynomolgus monkey donor 2, anti-human IgG PE secondary
Procedure: as §1, §2, §3

B1: BIIB059 (antibody, human IgG1, kappa)
heavy: not shown
light: DIQLTQSPSSLSASVGDRVTITCKASQSVDYDGDSYMNWYQQKPGKAPKLLIYAASTLESGVPSRFSGSGSGTDFTLTISSLQPEDFATYYCQQANEDPRTFGQGTKVEIKRTVAAPSVFIFPPSDEQLKSGTASVVCLLNNFYPREAKVQWKVDNALQSGNSQESVTEQDSKDSTYSLSSTLTLSKADYEKHKVYACEVTHQGLSSPVTKSFNRGEC
notes: Humanized IgG1 kappa, mature chains; in some assays labelled with Alexa647; also called hu24F4 H4/L1 C95A; H4-L1-C95A (YL751/YL746)
Question: What does the source list for B1?
Answer: EC50 [1]: 0.95 µg/mL; EC50 of BDCA2 internalization on pDCs (cynomolgus monkey 3, IV 10 mg/kg) [2]: 0.15 µg/mL; EC50 of BDCA2 internalization on pDCs (cynomolgus monkey 4, SC 0.2 mg/kg) [2]: 0.088 µg/mL; EC50 of BDCA2 internalization on pDCs (cynomolgus monkey 5, IV 1 mg/kg) [2]: 0.087 µg/mL; EC50 of BDCA2 internalization on pDCs (cynomolgus monkey 6, IV 1 mg/kg) [2]: 0.025 µg/mL; EC50 of BDCA2 internalization on pDCs (cynomolgus monkey 6, SC 0.2 mg/kg) [2]: 0.046 µg/mL; EC50 of BDCA2 internalization on pDCs (cynomolgus monkey 7, IV 1 mg/kg) [2]: 0.09 µg/mL; EC50 of BDCA2 internalization on pDCs (cynomolgus monkey 8, IV 10 mg/kg) [2]: 0.37 µg/mL; EC50 of BDCA2 internalization on pDCs (cynomolgus monkey 10, IV 10 mg/kg) [2]: 0.126 µg/mL; EC50 of BDCA2 internalization on pDCs (cynomolgus monkey 12, SC 0.2 mg/kg) [2]: 0.121 µg/mL; EC50 of BDCA2 internalization on pDCs (mean of the cynomolgus monkeys) [2]: 0.123 µg/mL; EC50 [3]: 1.6 µg/mL; EC50 [4]: 7 nM; EC50 [5]: 7 nM; EC50 [6]: 1.3 µg/mL; binding result [7]: no binding; EC50 [8]: 0.71 µg/mL; Kd [9]: 0.261 nM; EC50 [10]: 1.2 µg/mL; EC50 [11]: 1.4 µg/mL; EC50 [12]: 1.2 µg/mL; EC50 [13]: 1 µg/mL
